For one test, the system named is E. coli, DH5alpha strain. Briefly: Anti-microbial modified broth dilution assay with recombinant NCAMP-1. The class given is cell-based. The conditions noted are these: for MIC50 (MIC for 50% bactericidal activity): 2 h incubation, colony counts. The procedure:
(§1) The recombinant protein was examined for anti-microbial activity by a modified broth dilution assay. NCAMP-1 activity was tested against Gram positive (Micrococcus luteus, Streptococcus iniae) and Gram negative (E. coli, DH5alpha strain) microorganisms. S. iniae was grown and tested for susceptibility in Todd-Hewitt broth (THB) at 30° C. E. coli and M. luteus were grown and tested at 37° C. in Mueller-Hinton broth (MHB). Overnight cultures were diluted into fresh media and grown at the indicated temperature for 3-6 h. Cultures were diluted to 5000 CFUs (colony forming units)/ml in 10 mM sodium phosphate buffer (NAPB), supplemented to 10% wvith either MHB or THB. The relationship between A620 and CFUs was previously determined in our laboratory for each bacteria. Fifty microliters of bacteria (5000 CFUs) were added to an equal volume of NCAMP-1 (or control protein) diluted in 10 mM NAPB to the indicated protein concentration. Assay tubes were incubated at the appropriate temperatures for 2 h with shaking. Colony counts were then determined by plating serial dilutions of test cultures on the appropriate media. Results are expressed as CFUs/ml.
On the technique in general: Broth dilution looks for growth in wells or tubes with falling amounts of substance.

Another test deals with Streptococcus iniae. The test is described as above. Format: cell-based. The settings on record: S. iniae. The protocol: as §1
The test system of a further test is Micrococcus luteus. The test is described as follows: Anti-microbial assay, residual colony counts. The class given is cell-based. The conditions noted are these: M. luteus, 37 C, 2 h. The procedure: as §1, with “Fifty microliters of bacteria (5000 CFUs) were added to an equal volume of NCAMP-1 (or control protein) diluted in 10 mM NAPB to the indicated protein concentration. Assay tubes were incubated at the appropriate temperatures for 2 h with shaking.” left out
M. luteus were killed by full length recombinant NCAMP-1. […] After 2 hours, the OD620 was measured. Using a previously determined relationship of OD620 0.1=1.2×10^7 CFUs/ml, bacteria was diluted to 10^5 CFUs/ml in sodium phosphate buffer (pH8) supplemented with 10% with MH broth (assay buffer). […] Serial dilutions of each sample were plated onto MH agar plates and residual colony counts were determined. […]

The next test has as its system GpC and CpG ODNs. The test is described as follows: Southwestern (ODN) blot of recombinant NCAMP-1. Format: binding. The conditions noted are these: Southwestern blotting, biotinylated ODNs, FIG. 13B. The protocol: Biotinylated ODNs were used to identify potential. DNA binding proteins in NCC membrane lysate preparations and to evaluate the ODN binding of recombinant NCAMP-1. Membrane lysates were prepared as indicated above. Purified recombinant NCAMP-1 was mixed with SDS-PAGE sample buffer (reducing) prior to electrophoresis. […] Membranes were blocked in Superblock (Pierce, Rockford Ill.) blocking solution with 0.05% Tween-20. ODN's were diluted in Superblock and added to membranes (1 h, room temperature). Membranes were washed (3×) in TBS with 0.5% Tween-20 (TBST). Neutraviden-HRP (Pierce) diluted in Superblock (minimum dilution 1:50000) was added and incubated for 30 min at room temperature. Blots were washed (3×) in TBST and were developed with enhanced chemiluminiscence (SuperSignal® West Pico Pierce, Rockford, Ill.).

As to “NCAMP-d2: truncated recombinant NCAMP-1, aa 1-60 of SEQ ID NO:3 (MSAQAEETAPEAAAPVQPSQPAAKKKGPASKAKPASAEKKNKKKKGKGPGKYSQLVINAI; listed as Ictalurus punctatus)”, in the test on E. coli, DH5alpha strain, the MIC50 concentration stood at 1.0 µM and the “MIC50 (MIC for 50% bactericidal activity)” value is 1.0 µM.

B1: NCAMP-1: NCC cationic antimicrobial protein-1 from channel catfish, 203 amino acids, SEQ ID NO:3; recombinant His-tagged form expressed in E. coli (protein, listed as Ictalurus punctatus)
chain: MSAQAEETAPEAAAPVQPSQPAAKKKGPASKAKPASAEKKNKKKKGKGPGKYSQLVINAIQTLGERNGSSLFKIYNEAKKVNWFDQQHGRVYLRYSIRALLQNDTLVQVKGLGANGSFKLNKKKFIPRTKKSSVKPRKTAKPTKKPAKKAAKKKKRVSGVKKATPPPEKTSKPKKADKSPAVSAKKASKPKKAKQTKKTAKKT
modifications: His tag
notes: recombinant His-tagged form expressed in E. coli
As for B1, the “MIC50 (MIC for 50% bactericidal activity)” value in the test on E. coli, DH5alpha strain is 0.43 uM (SEQ ID NO: 3); with Streptococcus iniae (2 h incubation, colony counts), 0.86 µM. The bactericidal activity result in the test with E. coli, DH5alpha strain (FIG. 17) is on record as “killed”; with Streptococcus iniae (FIG. 17), “killed”; in the test on Micrococcus luteus it was “killed”. Further, the “ODN binding of recombinant protein” value with GpC and CpG ODNs was “bind to GpC (SEQ ID NO:11) and CpG (SEQ ID NO:7)”.

B2: NCAMP-d1: truncated recombinant NCAMP-1, aa 1-118 of SEQ ID NO:3 (protein, listed as Ictalurus punctatus)
chain: MSAQAEETAPEAAAPVQPSQPAAKKKGPASKAKPASAEKKNKKKKGKGPGKYSQLVINAIQTLGERNGSSLFKIYNEAKKVNWFDQQHGRVYLRYSIRALLQNDTLVQVKGLGANGSF
For the molecule B2, in the test on E. coli, DH5alpha strain, the MIC50 concentration was 0.63 µM and the “MIC50 (MIC for 50% bactericidal activity)” value was 0.63 µM.
